Changes are numbered by the printed parent chain. Names and notes keep the numbering of the source.

Test [1] addresses T1, FAM46C E166Q/F193D/F206D (residues 16-350) (human, UniProt Q5VWP2 16-350, E166Q | F193D | F206D).
T1 sequence (looked up): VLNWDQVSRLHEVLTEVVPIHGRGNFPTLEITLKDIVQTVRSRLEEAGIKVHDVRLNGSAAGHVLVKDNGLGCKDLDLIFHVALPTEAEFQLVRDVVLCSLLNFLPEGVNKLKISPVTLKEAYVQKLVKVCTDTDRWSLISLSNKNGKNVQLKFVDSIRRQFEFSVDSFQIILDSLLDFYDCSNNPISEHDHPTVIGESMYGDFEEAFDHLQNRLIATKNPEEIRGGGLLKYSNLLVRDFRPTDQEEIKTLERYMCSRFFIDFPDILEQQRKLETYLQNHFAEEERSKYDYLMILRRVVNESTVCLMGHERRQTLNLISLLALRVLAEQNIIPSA
Briefly: crystal structure.

Test [2] deals with T2, GST-tagged FAM46C (residues 16-358) (human, UniProt Q5VWP2 16-358).
T2 sequence (looked up): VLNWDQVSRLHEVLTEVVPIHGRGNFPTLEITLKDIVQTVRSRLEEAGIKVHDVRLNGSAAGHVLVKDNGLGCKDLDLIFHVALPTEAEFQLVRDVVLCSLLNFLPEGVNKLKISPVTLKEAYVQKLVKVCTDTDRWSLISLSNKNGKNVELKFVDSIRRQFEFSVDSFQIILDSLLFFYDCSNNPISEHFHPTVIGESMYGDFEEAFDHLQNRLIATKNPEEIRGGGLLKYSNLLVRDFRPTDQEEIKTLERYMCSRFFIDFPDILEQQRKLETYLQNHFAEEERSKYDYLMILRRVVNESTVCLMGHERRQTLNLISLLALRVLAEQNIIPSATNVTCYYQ
Briefly: pull-down.

The target in test [3] is T3, GST-tagged FAM46D (residues 7-340) (human, UniProt Q8NEK8 7-340).
T3 sequence (looked up): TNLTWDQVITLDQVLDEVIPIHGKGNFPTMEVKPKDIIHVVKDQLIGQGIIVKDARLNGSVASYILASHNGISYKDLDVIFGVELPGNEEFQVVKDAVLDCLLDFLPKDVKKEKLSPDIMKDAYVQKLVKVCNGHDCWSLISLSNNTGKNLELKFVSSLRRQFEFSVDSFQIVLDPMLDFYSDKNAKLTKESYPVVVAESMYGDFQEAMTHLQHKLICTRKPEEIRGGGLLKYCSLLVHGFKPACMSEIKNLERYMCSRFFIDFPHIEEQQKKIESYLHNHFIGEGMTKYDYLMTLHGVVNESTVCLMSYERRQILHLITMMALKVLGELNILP
Put plainly: pull-down.

Test [4] has as its target T4, human FAM46C (residues 16-358), NTase domain (human, UniProt Q5VWP2 16-358).
T4 sequence (looked up): T2 sequence (looked up)
Briefly: crystal structure.

B1: CPB1-2 of human PLK4 (residues 580-810) (domain or fragment, UniProt O00444 580-810, looked up)
chain: WGYQNRTLRSITSPLVAHRLKPIRQKTKKAVVSILDSEEVCVELVKEYASQEYVKEVLQISSDGNTITIYYPNGGRGFPLADRPPSPTDNISRYSFDNLPEKYWRKYQYASRFVQLVRSKSPKITYFTRYAKCILMENSPGADFEVWFYDGVKIHKTEDFIQVIEKTGKSYTLKSESEVNSLKEEIKMYMDHANEGHRICLALESIISEEERKTRSAPFFPIIIGRKPGST
For B1, the binding result in test [1], in test [2], in test [3] and in test [4] was “binds” each time.

B2: CPB1-2 of human PLK4 (residues 580-810) N669R (domain or fragment, UniProt O00444 580-810, looked up)
chain: B1 chain with N90R
As to B2, the binding result in test [2] was “binds”.
